In patent publication US6429297B1, “Modified avidin and streptavidin and methods of use thereof” (University of Rochester, priority 1995, dated 2002):
Where two headings read alike, the source gives them in different places.

What was measured:
[1] = set-up: species or system rabbits; settings: rabbit, in vivo, 0.12 mg
Protocol: 0.3 mg of SA-Tgal or SA-pTgal were-added to a microcentrifuge tube containing ˜0.5 mCi of I-131. Three Iodobeads were added and then mixed and incubated for 12 minutes at room temperature. Free I-131 was removed by ultrafiltration using centricon-30 filters. SA-Tgal and SA-pTgal concentration was determined spectrophotometrically. (E^1%280 nm=34)
0.12 mg of I-131 SA-Tgal and I-131 SA-pTgal were injected into rabbits for two hours. […] The liver accumulation for SA-Tgal was 90% compared to 16% for SA-pTgal.

[2] = rabbit, in vivo
Protocol: (§1) SA and Avid, 0.5 mg, were radiolabeled with starting activities of ˜0.3 mCi ^131I and ˜0.1 mCi ^131I, respectively.
(§2) Biodistribution was determined in vivo. New Zealand White rabbits, ˜3 kg, (n=3 per experiment) were fasted for 12 hours prior to the experiment and anesthetized using an intramuscular injection of chlorpromazine (25 mg/kg) followed by intravenous sodium pentobarbital (15 mg/kg). An external jugular vein was dissected and catheterized using a 5 French straight catheter for injection and collection of whole blood. The animal was placed in a supine position under the gamma camera for imaging and was then injected with [75 μg] of the radiolabeled proteins prepared above. Whole blood samples (2-3 ml) were taken at intervals for 2 hours. Planar gamma camera images (30K count acquisition) were taken at 5, 30, 60 and 120 minutes. At two hours, animals were euthanized. Major organs were removed, weighed and representative samples taken for biodistribution analysis. Blood volume was estimated to be 6% of total body weight.

[3] = rabbit, in vivo; remark: listed apart in the source
Protocol: (§3) The blood clearance kinetics of the compounds of the present invention can be assessed by in vivo assays. The modified Avid and SA compounds are detectably labeled, for example by radiolabeling, injected into animals, and blood clearance is then determined by biodistribution analysis of radiolabeled samples. For example, the compounds of the present invention can be radiolabeled with ^131I by the Pierce lodobead method (Pierce, Rodeford, Ill.) and separated from free iodine for example by ultrafiltration using CENTRICON-30 filters. Experimental animals, for example, rabbits weighing about 3 kilograms, are fasted, anesthetized, and an external jugular vein is dissected and catheterized for injection and collection of blood samples. A radiolabeled compound of the present invention is injected. Whole blood samples are taken at various time intervals for about two hours. By comparing the blood clearance of galactose-modified SA with native SA, and Avid-E, the skilled artisan can determine the extent of modification that results in optimal blood clearance.
as §1, §2

[4] = DACB (biotin chelate) saturation / biotin binding assay
Protocol: The ability of the compounds of the present invention to bind to biotin can be assessed by in vitro assays known to one of ordinary skill in the art. For example, the compounds of the present invention are incubated with a molar excess of radiolabeled biotin under conditions sufficient for avidin-biotin or streptavidin-biotin binding. Biotin bound to the tested compound is separated from unbound biotin, for example by filtration. The bound biotin/modified Avid or SA ratio is determined by dividing the activity in the retentate by the specific activity of the radiolabeled biotin. The binding ratios for each modified Avid or SA compound are determined by dividing the bound moles of biotin by the moles of each compound.
In a preferred embodiment, the radiolabeled biotin is the biotin chelate deferoxamineacetylcysteinylbiotin (DACB) labeled with ^67Ga. DACB is known in the art and described for example by Rosebrough et al (1993) J. Pharm. Exp. Therap. 265:408 and in U.S. Pat. No. 5,326,778. DACB can be radiolabeled by direct addition of carrier free ^67Ga citrate (DuPont Merck Pharmaceutical Co., Billerica, Mass.). Samples of Avid, SA, modified Avid, and modified SA are incubated with a 20/1 molar excess of ^67Ga-DACB on CENTRICON-30 filters (Amicon, Beverly, Mass.) in 0.05M Tris/0.15M NaCl, pH 7.5. After two washings, the bound DACB/protein ratio is determined by dividing the bound activity in the retentate by the specific activity of ^67Ga-DACB. The binding ratio for each compound is determined by dividing the bound moles of DACB by the moles of streptavidin. […]
The purified DACB was then used to access the ability of the compounds prepared in accordance with Examples I-III to bind to biotin. […] After 2 washings, the bound DACB/protein ratio was determined by dividing the bound activity in the retentate by the specific activity of ^67Ga DACB (˜2×10^16 cpm/mole). The binding ratios for each sample were determined by dividing the bound moles of DACB by the moles of each protein. […]

[5] = biodistribution and gamma camera imaging of ^131I-labelled modified SA and Avid in rabbits; settings: rabbit; for kidney accumulation (biodistribution) / liver accumulation (biodistribution): 2 hours after injection; for planar gamma camera images, location of activity: images at 5, 30 and 120 minutes
Protocol: as §1, §2

[6] = blood clearance of ^131I-labelled modified SA and Avid in rabbits; settings: rabbit, ^131I label, over 2 hours
Protocol: as §3, §1, §2

## SA-pTgal: acetylated Tgal modified streptavidin
[1]
  blood clearance (in words): much slower than that of the SA-Tgal

## streptavidin [SA]
[2]
  planar gamma camera images, location of activity: vascular activity as indicated by systemic circulation and cardiac activity
[3]
  percent of injected dose circulating in the blood at 2 hours: greater than 50%
[4]; 20/1 molar excess ^67Ga DACB, pH 7.5
  DACB binding ratio (bound moles DACB per mole protein): 3.6

## avidin [reference compound]
[5]
  kidney accumulation (biodistribution): accumulated mostly in the liver and kidney
  liver accumulation (biodistribution): accumulated mostly in the liver and kidney
  planar gamma camera images, location of activity: exclusively in the liver and kidneys
[6]
  blood clearance (in words): cleared quickly

## Avid-E/N: avidin both neutralized and deglycosylated
[5]
  kidney accumulation (biodistribution): low levels in both the kidney and liver
  liver accumulation (biodistribution): low levels in both the kidney and liver
  planar gamma camera images, location of activity: circulatory activity with a corresponding decrease in liver and kidney activity
[6]
  blood clearance (in words): substantially prolonged

## Avid-N: avidin neutralized by acetylation of its lysine amino acids
[5]
  kidney accumulation (biodistribution): decreased considerably
  liver accumulation (biodistribution): high liver accumulation
  planar gamma camera images, location of activity: dramatic reduction in kidney activity and a corresponding increase in liver activity
[4]; sample made at NHS-Ac/Avid molar ratio 10
  DACB saturation analysis: approximated the binding of DACB to native avidin
[4]; sample made at NHS-Ac/Avid molar ratio 25
  DACB saturation analysis: approximated the binding of DACB to native avidin
[6]
  blood clearance (in words): cleared slower than native Avid
